# Data as given in article PMC10732398 (PLOS Pathogens, 2023).
# Legend:
# [1] = system: ⍺4β7 on primary CD8^+ T cells; test: Flow cytometry: FAM-conjugated pCD4^165-178 binding to RA-treated primary CD8^+ T cells; parameters: species or system human; conditions: FAM-Ttds-labelled peptide 1.25 μg/200,000 cells in 100 μl; MnCl2; 3 independent experiments
# Excerpt: To further investigate the interaction between pCD4^165-178 and ⍺4β7 we attached a fluorescein dye to its amino terminus via a trioxatridecan-succinamic acid (Ttds) linker (Fig 5A). A scrambled pCD4^165-178 was employed as a control. […] FIB504 and vedolizumab inhibited binding by ~50%. This inhibition pattern resembles the one we obtained when inhibiting D1D2-Ig⍺tp with the same antagonists (Fig 3). We conclude that the CD4 D2 G β-strand binds directly to the headpiece region of ⍺4β7 in a cation dependent manner. Support for this conclusion, in the form of site directed mutagenesis within the D2 G β-strand is provided below.
# Fig 5 Direct binding of pCD4^165-178 to ⍺4β7 on primary T cells. (A) Sequence of FAM -conjugated pCD4^165-178 and a scrambled derivative (FAM-scr pCD4^165-178). (B) Flow-cytometry derived histogram of pCD4^165-178 binding to RA -cultured CD8^+ T cells. pCD4^165-178 in the presence (green), or absence of Mn^++(black). Unstained cells are shown (grey). (C) Binding of pCD4^165-178 and its scrambled derivative to CD8^+ T cells in the presence of MnCl2 as in panel B, and in the presence of ⍺4 and ⍺4β7 antagonists, as indicated. Y-axis indicates % cells bound. Error bars represent standard error from 3 independent experiments.
# Cells were stained with fluoresceine conjugated mAbs or recombinant proteins using standard procedures preceded by Fc receptor blocking with human IgG. Buffers used were 10 mM HEPES 150 mM NaCl (HBS Buffer) with 100 μM CaCl2. 1 mM MnCl2 was also included, unless otherwise specified. Buffer without divalent cations included 0.1 mM EDTA. Unlabeled mAb or protein inhibitors were preincubated with cells or proteins at a 5X molar excess for 15 min on ice. FAM labeled peptides were used at 1.25 μg/ 200,000 cells in a 100 μl volume. Data were acquired using a FACSCanto II (BD Biosciences) and analyzed with FlowJo software (BD Biosciences). Plotted MFI values represent absolute values.
# [2] = system: ⍺4β7 transfected 293T cells; test: Flow cytometry: staining of 293T cells co-transfected with ⍺4 and β7 expression vectors; assay type: binding; conditions: Fig 1C
# Excerpt: The FRET/FLIM results described above indicate a direct interaction between CD4 and ⍺4β7. […] To this end we employed a fluorescently labelled soluble dodecameric CD4 Ig fusion protein, termed D1D2-Ig⍺tp, that includes the two N-terminal Ig-like domains of CD4 (D1D2, aa 1–180), followed by IgG1 CH2 and CH3 domains, followed by the 18 aa tail-piece domain of IgA (⍺tp). In this oligomer, 12 D1D2-Igs are arranged in a disulphide linked daisy-chain (Fig 1A). Primary CD4^+ T cells, some of which express ⍺4β7, were reacted with D1D2-Ig⍺tp and analyzed by flow-cytometry. A second oligomeric Ig fusion protein, MicA-Ig⍺tp, which includes the two N-terminal domains of MicA, was employed as a specificity control. […] MAdCAM-Ig was employed as a positive control. […] We conclude that an oligomeric soluble CD4 that includes only its two N-terminal domains can bind to ⍺4β7 in a specific way.
# Fig 1 Binding of soluble CD4 to ⍺4β7 on CD4^+ T cells. (A) Schematic of D1D2-Ig⍺tp. […] X-axis indicates geometric mean fluorescence intensity (gMFI). […]
# Cells were stained with fluoresceine conjugated mAbs or recombinant proteins using standard procedures preceded by Fc receptor blocking with human IgG. […] Data were acquired using a FACSCanto II (BD Biosciences) and analyzed with FlowJo software (BD Biosciences). […]
# ⍺4β7 = test: SPR: inhibition by linear peptides of soluble ⍺4β7 binding to a CD4 D1D2 coated surface; conditions: for inhibition of ⍺4β7 binding to D1D2 (in words): SPR, Fig 7B, 7D, S5 Fig; for inhibition of ⍺4β7 binding to CD4 D1D2 coated surface: SPR peptide scan (Fig 4A), ⍺4β7 pre-incubated with peptide 2 hours at room temperature, 1 mM MnCl2
# Excerpt: We next modified our SPR -based assay in order to map the site(s) on CD4 that interacts with ⍺4β7. In this modified assay ⍺4β7 was passed over a surface coated with CD4 D1D2 in the absence or presence of 42 overlapping 15 amino acid linear peptides spanning CD4 residues 1–178 (S2 Table). Two peptides located in CD4 D1, #7 and #9, inhibited ⍺4β7 binding by ~17% (Fig 4A). The final peptide in CD4 D2, p42, inhibited binding by ~ 66%. Linear peptides often lack the true conformation of the protein from which they are derived. Additionally, the kinetic format of our assay allows for ligand-analyte rebinding during the association phase. These features render this inhibition assay somewhat insensitive. Nevertheless, the dynamic range of this assay is sufficient to identify interactions that are worthy of follow-up investigation (S4 Fig). As such, our preliminary findings raised the possibility that both D1 and D2 domains of CD4 interact with ⍺4β7. Of note, MAdCAM-1 and VCAM-1, like CD4, present two tandemly arrayed N-terminal IgSF domains (Fig 4B). In both cases, binding to ⍺4β7 is mediated by a 1° binding site in their D1s and an accessory site, located in their D2s. The term accessory is a misnomer insofar as these sites plays an essential role in ⍺4β7 binding. Follow-up experiments focused on p9 and p42, which we herein refer to as pCD4^33-47 and pCD4^165-178. pCD4^33-47 partially overlaps the D1 C’C” β-strands and a connecting loop. The primary gp120 contact site (Phe^43) lies at the N-terminal edge of this loop (Fig 4C). pCD4^165-178 includes Q^165 and K^166. These residues lie primarily within the G β-strand of D2, close to the boundary with D3. Because peptide inhibition assays sometime mediate nonspecific effects, further analysis was performed to better establish the role of these two regions of CD4 in binding to ⍺4β7.
# To determine if this is the case, we employed an SPR -based assay. Biosensor surfaces were coated with either CD4 D1D2 or a 42 aa cyclic V2 peptide derived from the subtype E 92TH023 gp120 (cV2 92TH023). A third surface coated with MAdCAM-Ig was employed as a positive control. Soluble ⍺4β7 was passed over these surfaces. We then evaluated the capacity of staggered 15 aa peptides that span either CD4 D2 or gp120 V2 to inhibit this interaction (Fig 7A).
# Experiments were performed using a Biacore 3000 instrument (Cytiva Life Sciences) using CM4 or CM5 sensor chips. The data were evaluated using BIAevaluation 4.1.1 software (Cytiva Life Sciences). The chip surface was activated by injecting 35 μl of a 1:1 mixture of 0.05 M N-hydroxysuccinimide and 0.2 M N-ethyl-N-(dimethylaminopropyl) carbodiimide at 5 μl/min. NeutrAvidin, HIV gp120, sCD4 (D1D2) or Hu-MAdCAM-Ig (R&D Systems) at concentrations of 5 μg/ml in 10mM NaOAc, pH 4.5, were immobilized to 250–750 resonance units (RU). After the proteins were immobilized to the desired densities, unreacted sites were blocked with 35 μl of 1 M Tris-HCl (pH 8.0). Biotinylated cyclic V2 peptides (1 μg/ml in 20 mM Tris-HCl, pH 8.0) were bound to the NeutrAvidin surfaces to densities of approximately 250–300 RU. One surface was activated and blocked without ligand as a control surface for non-specific binding. Signal from the control surface was subsequently subtracted. Running buffer was HBS (pH 7.4), 1 mM MnCl2, 0.005% Tween- 20, 0.05% soluble carboxymethyl-dextran. Binding experiments were carried out at a flow rate of 25 μl/min at 25°C. After a 2 min injection, the surface was washed for an additional 2 min in running buffer allowing dissociation of the bound ligand from the surface. The surfaces were regenerated by multiple injections of 4.5 M MgCl2 at a flow rate of 100 μl/min. Inhibition of ⍺4β7 binding by linear V2-loop and CD4 derived peptides was carried out by pre-incubating ⍺4β7 with the peptides in running buffer at the indicated concentrations for 2 hours at room temperature prior to passing them over the prepared surfaces as described above. […]
# [3] = target: CD4 D1D2 protein (23 kD, aa 1-183) (human); test: SPR
# [4] = target: BG505 gp120 (monomeric gp120) (HIV-1 BG505); test: SPR
# [5] = target: BG505 SOSIP env trimer (HIV-1 BG505); test: SPR
# [6] = target: T1, soluble α4β7 (recombinant integrin α4β7) (UniProt P13612 35-977; P26010 20-723); test: SPR; conditions: both partners purified
# T1 construct: also called integrin ⍺4β7; recombinant ⍺4β7
molecule,measurement,setting,value
"CCOCc1cc(OC)c(-c2ccc(C[C@H](NC(=O)c3c(F)cccc3F)C(=O)O)cc2)c(OC)c1 [FG, firategrast]",reduction of pCD4^165-178 binding to CD8^+ T cells,[1],~ 80%
same,inhibition of D1D2-Ig⍺tp and MAdCAM-Ig binding to ⍺4β7 transfected 293T cells (in words),[2],inhibited
"IVVLAFQKASSIVY [CD4 P45, overlapping linear CD4 D2 peptide]",inhibition of ⍺4β7 binding to D1D2 (in words),⍺4β7,unable to inhibit
"KIDIVVLAFQKASS [CD4 P44, overlapping linear CD4 D2 peptide]",inhibition of ⍺4β7 binding to D1D2 (in words),⍺4β7,unable to inhibit
"QFHWKNSNQIKILGN [CD4 P7, overlapping linear CD4 peptide, CD4 D1]",inhibition of ⍺4β7 binding to CD4 D1D2 coated surface,⍺4β7,~ 17%
"QIKILGNQGSFLTKG [CD4 P9, linear CD4 D1 peptide overlapping the C'C'' β-strands and connecting loop]",inhibition of ⍺4β7 binding to CD4 D1D2 coated surface,⍺4β7,~ 17%
"VEFKIDIVVLAFQK [CD4 P43, overlapping linear CD4 D2 peptide]",inhibition of ⍺4β7 binding to D1D2 (in words),⍺4β7,reduced inhibition relative to pCD4^165-178
soluble α4β7 (recombinant integrin α4β7) (from UniProt P13612 35-977; P26010 20-723) (complex),Ka,[3],2.8e+08 M⁻¹
same,koff,[3],0.000464 s⁻¹
same,kon,[3],130000 M⁻¹ s⁻¹
same,Ka,[4],1.01e+09 M⁻¹
same,Kd,[4],0.994 nM
same,koff,[4],0.00136 s⁻¹
same,kon,[4],1.37e+06 M⁻¹ s⁻¹
same,Ka,[5],7.47e+08 M⁻¹
same,Kd,[5],1.34 nM
same,koff,[5],0.00112 s⁻¹
same,kon,[5],840000 M⁻¹ s⁻¹
"VCAM-Ig (Fc fusion, UniProt P19320 25-698, looked up, also called recombinant VCAM-Ig) FKIETTPESRYLAQIGDSVSLTCSTTGCESPFFSWRTQIDSPLNGKVTNEGTTSTLTMNPVSFGNEHSYLCTATCESRKLEKGIQVEIYSFPKDPEIHLSGPLEAGKPITVKCSVADVYPFDRLEIDLLKGDHLMKSQEFLEDADRKSLETKSLEVTFTPVIEDIGKVLVCRAKLHIDEMDSVPTVRQAVKELQVYISPKNTVISVNPSTKLQEGGSVTMTCSSEGLPAPEIFWSKKLDNGNLQHLSGNATLTLIAMRMEDSGIYVCEGVNLIGKNRKEVELIVQEKPFTVEISPGPRIAAQIGDSVMLTCSVMGCESPSFSWRTQIDSPLSGKVRSEGTNSTLTLSPVSFENEHSYLCTVTCGHKKLEKGIQVELYSFPRDPEIEMSGGLVNGSSVTVSCKVPSVYPLDRLEIELLKGETILENIEFLEDTDMKSLENKSLEMTFIPTIEDTGKALVCQAKLHIDDMEFEPKQRQSTQTLYVNVAPRDTTVLVSPSSILEEGSSVNMTCLSQGFPAPKILWSRQLPNGELQPLSENATLTLISTKMEDSGVYLCEGINQAGRSRKEVELIIQVTPKDIKLTAFPSESVKEGDTVIISCTCGNVPETWIILKKKAETGDTVLKSIDGAYTIRKAQLKDAGVYECESKNKVGSQLRSLTLDVQGRENNKDYFSPE",Ka,[6],2.76e+07 M⁻¹
same,Kd,[6],36.3 nM
same,koff,[6],0.00141 s⁻¹
same,kon,[6],38700 M⁻¹ s⁻¹
"MAdCAM-Ig (Fc fusion, human, UniProt Q13477 19-317, looked up, also called Hu-MAdCAM-Ig; recombinant MAdCAM-Ig) QSLQVKPLQVEPPEPVVAVALGASRQLTCRLACADRGASVQWRGLDTSLGAVQSDTGRSVLTVRNASLSAAGTRVCVGSCGGRTFQHTVQLLVYAFPDQLTVSPAALVPGDPEVACTAHKVTPVDPNALSFSLLVGGQELEGAQALGPEVQEEEEEPQGDEDVLFRVTERWRLPPLGTPVPPALYCQATMRLPGLELSHRQAIPVLHSPTSPEPPDTTSPESPDTTSPESPDTTSQEPPDTTSPEPPDKTSPEPAPQQGSTHTPRSPGSTRTRRPEISQAGPTQGEVIPTGSSKPAGDQ",Ka,[6],1.12e+08 M⁻¹
same,Kd,[6],8.92 nM
same,koff,[6],0.000863 s⁻¹
same,kon,[6],96700 M⁻¹ s⁻¹
